Measured values as given in patent US20220363732A1 (MAX DELBR CK CENTRUM F R MOLEKULARE MEDIZIN IN DER …, published 2022).
Substitutions are numbered along the chain they refer to.

B1: T-7378 (TCR, V domains shown)
Valpha: AQTVTQSQPEMSVQEAETVTLSCTYDTSESDYYLFWYKQPPSRQMILVIRQEAYKQQNATENRFSVNFQKAAKSFSLKISDSQLGDAAMYFCAYRGTSGTYKYIFGTGTMLKVLA
Vbeta: DTEVTQTPKHLVMGMTNKKSLKCEQHMGHRAMYWYKQKAKKPPELMFVYSYEKLSINESVPSRFSPECPNSSLLNLHLHALQPEDSALYLCASSRGLAGPYEQYFGPGTRLTVT
B2: T-20109 TCR (TCR, V domains shown)
V domain 1: AQKITQTQPGMFVQEKEAVTLDCTYDTSDPSYGLFWYKQPSSGEMIFLIYQGSYDQQNATEGRYSLNFQKARKSANLVISASQLGDSAMYFCAMREEYSGAGSYQLTFGKGTKLSVIP
V domain 2: EPEVTQTPSHQVTQMGQEVILRCVPISNHLYFYWYRQILGQKVEFLVSFYNNEISEKSEIFDDQFSVERPDGSNFTLKIRSTKLEDSAMYFCASSQGPYNEQFFGPGTRLTVLE
B3: T-20332 (TCR, V domains shown)
Valpha: B2 V domain 1
Vbeta: EPEVTQTPSHQVTQMGQEVILRCVPISNHLYFYWYRQILGQKVEFLVSFYNNEISEKSEIFDDQFSVERPDGSNFTLKIRSTKLEDSAMYFCASSRGPYNEQFFGPGTRLTVL
B4: T-20109 (TCR, V domains shown)
Valpha: B2 V domain 1
Vbeta: B3 Vbeta with R96Q
B5: T-20332 TCR (TCR, V domains shown)
V domain 1: B2 V domain 1
V domain 2: B2 V domain 2 with Q96R

Tests used:
[1] = biological target: T1, CD5 peptide on HLA-A*02:01 (human); assay: killing
T1 peptide: SICEGTVEV

[2] = biological target: CD5 51-59 epitope (…, SEQ ID NO: 1) in complex with HLA-A2 (human); assay: cell-based or functional assay
[3] = biological target: T2, CD5 peptide on HLA-A*02:01 (human); assay: killing
T2 peptide: YLKDGWHMV

Binder	Kd value from peptide titration on peptide loaded T2 cells: fold increase for RNAi-CD5 TCR T cells from HLA-A2+ donors against TCR-transduced T cells from an HLA-A2- donor [2]	binding result [3]	also measured
B1			binding result [1]: recognises
B2	2.24 fold		
B3		recognises	
B4		recognises	
B5	1.48 fold		
